Data taken from PMC9256654, “Mechanistic basis for maintenance of CHG DNA methylation in plants” (Nature Communications, 2022).

Target: T1, Zea mays ZMET2 (residues 130-912), core fragment harboring the CD, BAH and MTase domains (Zea mays, UniProt Q9AXT8 130-912, in the crystallised complex C517 is covalently linked to the target 5-fluorocytosine (fC10) of the hmCAG DNA)
T1 construct: ZMET2, chromomethylase, CMT3 ortholog of Zea mays, residues 130-912; in the enzymatic assays and the EMSA the free protein was used; also called WT ZMET2; source: E. coli BL21 DE3 (RIL), purified (Ni-NTA, Heparin HP, Superdex 200); not shown: His6-SUMO, N-terminal, cleaved
T1 sequence (looked up): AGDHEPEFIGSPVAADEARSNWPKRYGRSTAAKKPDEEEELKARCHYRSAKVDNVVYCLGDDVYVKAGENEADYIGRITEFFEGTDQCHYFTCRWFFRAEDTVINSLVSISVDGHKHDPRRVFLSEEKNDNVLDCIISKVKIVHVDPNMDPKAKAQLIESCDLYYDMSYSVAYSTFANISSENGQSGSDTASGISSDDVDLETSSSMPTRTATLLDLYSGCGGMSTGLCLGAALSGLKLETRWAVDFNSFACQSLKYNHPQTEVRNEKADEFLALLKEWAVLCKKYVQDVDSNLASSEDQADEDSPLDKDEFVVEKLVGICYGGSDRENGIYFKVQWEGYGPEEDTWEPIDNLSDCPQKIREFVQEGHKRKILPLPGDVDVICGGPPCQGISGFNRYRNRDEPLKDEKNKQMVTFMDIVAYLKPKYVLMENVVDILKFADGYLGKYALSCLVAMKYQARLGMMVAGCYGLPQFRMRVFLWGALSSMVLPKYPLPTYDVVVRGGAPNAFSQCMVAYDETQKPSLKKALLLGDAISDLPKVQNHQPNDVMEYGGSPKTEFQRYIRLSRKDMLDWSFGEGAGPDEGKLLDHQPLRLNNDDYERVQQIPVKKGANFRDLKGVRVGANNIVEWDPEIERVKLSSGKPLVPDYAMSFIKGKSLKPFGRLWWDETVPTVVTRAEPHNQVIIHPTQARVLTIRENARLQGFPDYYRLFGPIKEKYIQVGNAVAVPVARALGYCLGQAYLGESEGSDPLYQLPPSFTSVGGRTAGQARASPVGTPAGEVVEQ
Assay: crystal structure; covalent ZMET2-hmCAG DNA complex with the H3_(1–32)Kc9me2 peptide and SAH; sitting drop at 4 °C, 0.1 M sodium citrate pH 5.5, 15% w/v polyethylene glycol 6000
Conditions: both partners purified

B1: histone H3 peptide residues 1-32 harboring the Kc9me2 modification (methyl-lysine analog of H3K9me2) (peptide)
peptide: not shown
modifications: Kc9me2: cysteine 9 (K9C) alkylated with (2-chloroethyl)-dimethylammonium chloride to the methyl-lysine analog of dimethyl-lysine
notes: Histone H3 residues 1-32; The removal of the His6-SUMO tag is told only through 'initial purification as described above'; also called H3_(1–32)Kc9me2; H3Kc9me2; source: E. coli BL21 DE3 (RIL), purified (HiTrap SP HP), alkylated, purified again (HiTrap SP HP); not shown: His6-SUMO, N-terminal, cleaved
B1 was tested, and the “stoichiometry N” value was 2 peptides per ZMET2 complex.
